Measured values reported in patent publication US20230212319A1, “NOVEL ANTIGEN BINDING DOMAINS AND SYNTHETIC ANTIGEN RECEPTORS INCORPORATING THE SAME” (University of Southern California, priority 2020, published 2023).

B1: 22019 (protein)
chain: MALPVTALLLPLALLLHAARPLEGKPIPNPLLGLDSTGSGEDLKNVFPPEVAVFEPSKAEIAHTQKATLVCLATGFYPDHVELSWWVNGKEVHSGVCTDPQPLKEQPALNDSRYCLSSRLRVSATFWQNPRNHFRCQVQFYGLSENDEWTQDRAKPVTQIVSAEAWGRADCGITSASYHQGVLSATILYEILLGKATLYAVLVSALVLMAMVKRKDSRGRAKRSGSGATNFSLLKQAGDVEENPGPTSTMALPVTALLLPLALLLHAARPQLQLQESGPGLVKPSETLSLTCTVSGDSISSGDYYWGWIRQPPGKGLEWIGHIYYSGVTYYNPSLKSRVTISVDTSRNQFSLKLSSVTAADTAVYYCTREDSSNWRSRGQGTLVTVSSLESGGGGSFEVQLLESGGGLIQPGGSLRLSCAASGFTFSSHAMTWVRQAPGKGLEWVSAISGSGDYTHYADSVKGRFTISRDNSKNTVYLQMNSLRAEDSAVYYCAKDEDGGSLLGHRGQGTLVTVSSTREQKLISEEDGSGIQNPDPAVYQLRDSKSSDKSVCLFTDFDSQTNVSQSKDSDVYITDKCVLDMRSMDFKSNSAVAWSNKSDFACANAFNNSIIPEDTFFPSSDVPCDVKLVEKSFETDTNLNFQNLSVIGFRILLLKVAGFNLLMTLRLWSSRAKRSGSGVKQTLNFDLLKLAGDVESNPGPSRGHMTEYKPTVRLATRDDVPRAVRTLAAAFADYPATRHTVDPDRHIERVTELQELFLTRVGLDIGKVWVADDGAAVAVWTTPESVEAGAVFAEIGPRMAELSGSRLAAQQQMEGLLAPHRPKEPAWFLATVGVSPDHQGKGLGSAVVLPGVEAAERAGVPAFLETSAPRNLPFYERLGFTVTADVEVPEGPRTWCMTRKPGA
B2: 22021 (protein)
chain: MALPVTALLLPLALLLHAARPQLQLQESGPGLVKPSETLSLTCTVSGDSISSGDYYWGWIRQPPGKGLEWIGHIYYSGVTYYNPSLKSRVTISVDTSRNQFSLKLSSVTAADTAVYYCTREDSSNWRSRGQGTLVTVSSLESGGGGSFEEVQLLESGGGLVQPGGSLRLSCAASGFTFSSYAMSWVRQAPGKGLEWVSSISGSGDYIYYADSVKGRFTISRDISKNTLYLQMNSLRAEDTAVYYCAKEGTGANSSLADYRGQGTLVTVSSTRIQNPDPAVYQLRDSKSSDKSVCLFTDFDSQTNVSQSKDSDVYITDKCVLDMRSMDFKSNSAVAWSNKSDFACANAFNNSIIPEDTFFPSPESSCDVKLVEKSFETDTNLNFQNLSVIGFRILLLKVAGFNLLMTLRLWSSRAKRSGSGVKQTLNFDLLKLAGDVESNPGPSRGHMTEYKPTVRLATRDDVPRAVRTLAAAFADYPATRHTVDPDRHIERVTELQELFLTRVGLDIGKVWVADDGAAVAVWTTPESVEAGAVFAEIGPRMAELSGSRLAAQQQMEGLLAPHRPKEPAWFLATVGVSPDHQGKGLGSAVVLPGVEAAERAGVPAFLETSAPRNLPFYERLGFTVTADVEVPEGPRTWCMTRKPGA
B3: 22046 (protein)
chain: MALPVTALLLPLALLLHAARPQLQLQESGPGLVKPSETLSLTCTVSGDSISSGDYYWGWIRQPPGKGLEWIGHIYYSGVTYYNPSLKSRVTISVDTSRNQFSLKLSSVTAADTAVYYCTREDSSNWRSRGQGTLVTVSSLESGGGGSFEEVQLLESGGGLVQPGGSLRLSCAASGFTFSSYAMSWVRQAPGKGLEWVSSISGSGDYIYYADSVKGRFTISRDISKNTLYLQMNSLRAEDTAVYYCAKEGTGANSSLADYRGQGTLVTVSSTRDKTHTCPPCPAIPEDTFFPSPESSCDVKLVEKSFETDTNLNFQNLSVIGFRILLLKVAGFNLLMTLRLWSSRAKRSGSGVKQTLNFDLLKLAGDVESNPGPSRGHMTEYKPTVRLATRDDVPRAVRTLAAAFADYPATRHTVDPDRHIERVTELQELFLTRVGLDIGKVWVADDGAAVAVWTTPESVEAGAVFAEIGPRMAELSGSRLAAQQQMEGLLAPHRPKEPAWFLATVGVSPDHQGKGLGSAVVLPGVEAAERAGVPAFLETSAPRNLPFYERLGFTVTADVEVPEGPRTWCMTRKPGA
B4: 22035 (protein)
chain: MALPVTALLLPLALLLHAARPQLQLQESGPGLVKPSETLSLTCTVSGDSISSGDYYWGWIRQPPGKGLEWIGHIYYSGVTYYNPSLKSRVTISVDTSRNQFSLKLSSVTAADTAVYYCTREDSSNWRSRGQGTLVTVSSLDSGGGGSFEQLQLQESGPGLVKPSETLSLTCTVSGGSISSGDYYWGWIRQPPGKGLEWIGHIYYSGATYYNPSLKSRVTISVDTSRNQFSLKLSSVTAADTAVYYCTRDDSSNWRSRGQGTLVTVSSTRIQNPDPAVYQLRDSKSSDKSVCLFTDFDSQTNVSQSKDSDVYITDKTVLDMRSMDFKSNSAVAWSNKSDFACANAFNNSIIPEDTFFPSPESSCDVKLVEKSFETDTNLNFQNLSVIGFRILLLKVAGFNLLMTLRLWSSRAKRSGSGVKQTLNFDLLKLAGDVESNPGPSRGHMTEYKPTVRLATRDDVPRAVRTLAAAFADYPATRHTVDPDRHIERVTELQELFLTRVGLDIGKVWVADDGAAVAVWTTPESVEAGAVFAEIGPRMAELSGSRLAAQQQMEGLLAPHRPKEPAWFLATVGVSPDHQGKGLGSAVVLPGVEAAERAGVPAFLETSAPRNLPFYERLGFTVTADVEVPEGPRTWCMTRKPGA
B5: 22049 (protein)
chain: MALPVTALLLPLALLLHAARPQLQLQESGPGLVKPSETLSLTCTVSGDSISSGDYYWGWIRQPPGKGLEWIGHIYYSGVTYYNPSLKSRVTISVDTSRNQFSLKLSSVTAADTAVYYCTREDSSNWRSRGQGTLVTVSSLEGQPKANPTVTLFPPSSEELQANKATLVCLISDFYPGAVTVAWKADGSPVKAGVETTKPSKQSNNKYAASSYLSLTPEQWKSHRSYSCQVTHEGSTVEKTVAPTECSPIKTDVITMDPKDNCSKDANDTLLLQLTNTSAYYMYLLLLLKSVVYFAIITCCLLRRTAFCCNGEKSRAKRSGSGATNFSLLKQAGDVEENPGPTSMDWIWRILFLVGAATGAHSFEVQLLESGGGLIQPGGSLRLSCAASGFTFSSHAMTWVRQAPGKGLEWVSAISGSGDYTHYADSVKGRFTISRDNSKNTVYLQMNSLRAEDSAVYYCAKDEDGGSLLGHRGQGTLVTVSSTRASTKGPSVFPLAPSSKSTSGGTAALGCLVKDYFPEPVTVSWNSGALTSGVHTFPAVLQSSGLYSLSSVVTVPSSSLGTQTYICNVNHKPSNTKVDKRVEPKSCEVKTDSTDHVKPKETENTKQPSKSCHKPKAIVHTEKVNMMSLTVLGLRMLFAKTVAVNFLLTAKLFFLRAKRSGSGVKQTLNFDLLKLAGDVESNPGPSRGHMTEYKPTVRLATRDDVPRAVRTLAAAFADYPATRHTVDPDRHIERVTELQELFLTRVGLDIGKVWVADDGAAVAVWTTPESVEAGAVFAEIGPRMAELSGSRLAAQQQMEGLLAPHRPKEPAWFLATVGVSPDHQGKGLGSAVVLPGVEAAERAGVPAFLETSAPRNLPFYERLGFTVTADVEVPEGPRTWCMTRKPGA
B6: 22047 (protein)
chain: MALPVTALLLPLALLLHAARPQLQLQESGPGLVKPSETLSLTCTVSGDSISSGDYYWGWIRQPPGKGLEWIGHIYYSGVTYYNPSLKSRVTISVDTSRNQFSLKLSSVTAADTAVYYCTREDSSNWRSRGQGTLVTVSSLEDKTHTCPPCPAPIKTDVITMDPKDNCSKDANDTLLLQLTNTSAYYMYLLLLLKSVVYFAIITCCLLRRTAFCCNGEKSRAKRSGSGATNFSLLKQAGDVEENPGPTSMDWIWRILFLVGAATGAHSFEVQLLESGGGLIQPGGSLRLSCAASGFTFSSHAMTWVRQAPGKGLEWVSAISGSGDYTHYADSVKGRFTISRDNSKNTVYLQMNSLRAEDSAVYYCAKDEDGGSLLGHRGQGTLVTVSSTRIQNPDPAVYQLRDSKSSDKSVCLFTDFDSQTNVSQSKDSDVYITDKCVLDMRSMDFKSNSAVAWSNKSDFACANAFNNSIIPEDTFFPSPESSCDVKLVEKSFETDTNLNFQNLSVIGFRILLLKVAGFNLLMTLRLWSSRAKRSGSGVKQTLNFDLLKLAGDVESNPGPSRGHMTEYKPTVRLATRDDVPRAVRTLAAAFADYPATRHTVDPDRHIERVTELQELFLTRVGLDIGKVWVADDGAAVAVWTTPESVEAGAVFAEIGPRMAELSGSRLAAQQQMEGLLAPHRPKEPAWFLATVGVSPDHQGKGLGSAVVLPGVEAAERAGVPAFLETSAPRNLPFYERLGFTVTADVEVPEGPRTWCMTRKPGA

test system: RAJI cells; experiment: JNG assay, co-culture with RAJI cells; assay type: cell-based; conditions: JNG cells expressing construct, co-culture with Raji
How it was run: (§1)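 Read-out is NFAT-driven GFP measured by flow cytometry after ~4–18 h co-culture of SAR-expressing JNG cells with target cells (E:T about 1:2). SARs were introduced by lentiviral spinfection and selected with puromycin or blasticidin when possible; scores (+/- to 5+ ≈ 5–50% GFP+) are relative to parental JNG cells.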

Row | Molecule | NFAT-GFP ASSAY: Raji
1 | B1 | + (refer to approximately 5%, 10%, 20%, 30%, 40% and 50% GFP positive cells)
2 | B2 | Raji (+/-), Nalm6 (+/-), L363 (+/-) (refer to approximately 5%, 10%, 20%, 30%, 40% and 50% GFP positive cells)
3 | B3 | 2+ (refer to approximately 5%, 10%, 20%, 30%, 40% and 50% GFP positive cells)
4 | B4 | Raji (+/-), Nalm6 (+/-), L363 (+/-) (refer to approximately 5%, 10%, 20%, 30%, 40% and 50% GFP positive cells)

test system: L363 cells; experiment: JNG assay, co-culture with L363 cells; assay type: cell-based; conditions: co-culture with L363
How it was run: as §1

Row | Molecule | NFAT-GFP ASSAY: L363
5 | B5 | +/- (refer to approximately 5%, 10%, 20%, 30%, 40% and 50% GFP positive cells)
6 | B1 | + (refer to approximately 5%, 10%, 20%, 30%, 40% and 50% GFP positive cells)
7 | B6 | +/- (refer to approximately 5%, 10%, 20%, 30%, 40% and 50% GFP positive cells)
8 | B2 | Raji (+/-), Nalm6 (+/-), L363 (+/-) (refer to approximately 5%, 10%, 20%, 30%, 40% and 50% GFP positive cells)
9 | B3 | + (refer to approximately 5%, 10%, 20%, 30%, 40% and 50% GFP positive cells)
10 | B4 | Raji (+/-), Nalm6 (+/-), L363 (+/-) (refer to approximately 5%, 10%, 20%, 30%, 40% and 50% GFP positive cells)

test system: Nalm6 cells; experiment: JNG assay, co-culture with Nalm6 cells; assay type: cell-based; conditions: co-culture with Nalm6
How it was run: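 Stable SAR lines in NFAT-GFP Jurkat background; coculture with target line ~4–18 h, E:T ~1:2; flow readout of GFP; positive if %GFP+ exceeds parental line; semi-quantitative grading +/- (~5%) through 5+ (~50%).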

Row | Molecule | NFAT-GFP ASSAY: Nalm6
11 | B5 | +/- (refer to approximately 5%, 10%, 20%, 30%, 40% and 50% GFP positive cells)
12 | B1 | +/- (refer to approximately 5%, 10%, 20%, 30%, 40% and 50% GFP positive cells)
13 | B6 | +/- (refer to approximately 5%, 10%, 20%, 30%, 40% and 50% GFP positive cells)
14 | B2 | Raji (+/-), Nalm6 (+/-), L363 (+/-) (refer to approximately 5%, 10%, 20%, 30%, 40% and 50% GFP positive cells)
15 | B3 | +/- (refer to approximately 5%, 10%, 20%, 30%, 40% and 50% GFP positive cells)
16 | B4 | Raji (+/-), Nalm6 (+/-), L363 (+/-) (refer to approximately 5%, 10%, 20%, 30%, 40% and 50% GFP positive cells)
